These results are taken from patent US20230220056A1 (KOOKMIN UNIVERSITY INDUSTRY ACADEMY COOPERATION FOUNDATION, published 2023).

Assay [1] deals with T1, recombinant human GRP94 (human, UniProt P14625 22-799, limits assumed).
T1 construct: also called rhGRP94; glucose-regulated protein 94
The assay is described as follows: ELISA, 100 ng rhGRP94 coated per well, IgG 0-500 nM; no unit beside the value, concentration axis in nM and the dotted drop line meets it at about 0.5. The protocol:
(§1) Each well of 96-well plates was coated with 0.1 μg of recombinant human GRP94 (rhGRP94), blocked with 3% (w/v) bovine serum albumin (BSA) in phosphate buffered saline (PBS) for 2 hours at 37° C., and incubated with 100 μL of GRP94 targeting IgG (20 μg/mL) for 2 hours at 37° C. The plates were washed thrice with 0.05% PBS-T, and 100 μL of a 500:1 dilution of the secondary antibody anti-human Fc Ab (Sigma-Aldrich) was added to each well. Incubation at 37° C. for 1 hour was followed by three rounds of washing with 0.05% PBS-T. Then, 100 μL of 3,3′,5,5′-tetramethylbenzidine (1-step ultra TMB) substrate solution was added to each well. Finally, optical densities were measured at 450 nm using a microplate reader (Synergy H1, BioTek).
(§2) In this regard, each well of 96-well plates was coated with 100 ng of rhGRP94 and blocked with 3% (w/v) bovine serum albumin (BSA) in PBS at 37° C. for 2 hours. Next, the plates were incubated with a concentration gradient of 0 nM to 500 nM of each clone for the GRP94 IgGs at 37° C. for 2 hours. The use of a secondary antibody and the measurement of optical density were conducted as described for the ELISA.
A general note: ELISA stands for enzyme-linked immunosorbent assay.

Assay [2] addresses T1, recombinant human GRP94. The assay is described as follows: ELISA, 100 ng rhGRP94 coated per well, IgG 0-500 nM; no unit beside the value, concentration axis in nM and the dotted drop line meets it at about 0.1. The protocol: as §1, §2
The target in assay [3] is T1, recombinant human GRP94. The assay is described as follows: ELISA, 100 ng rhGRP94 coated per well, IgG 0-500 nM; no unit beside the value, concentration axis in nM and the dotted drop line meets it at about 1.2. The protocol: as §1, §2
In assay [4] the target is T1, recombinant human GRP94. The assay is described as follows: ELISA, 100 ng rhGRP94 coated per well, IgG 0-500 nM; no unit beside the value, concentration axis in nM and the dotted drop line meets it at about 0.15. On the procedure:
as §1, §2

T1 sequence (P14625 22-799 limits assumed): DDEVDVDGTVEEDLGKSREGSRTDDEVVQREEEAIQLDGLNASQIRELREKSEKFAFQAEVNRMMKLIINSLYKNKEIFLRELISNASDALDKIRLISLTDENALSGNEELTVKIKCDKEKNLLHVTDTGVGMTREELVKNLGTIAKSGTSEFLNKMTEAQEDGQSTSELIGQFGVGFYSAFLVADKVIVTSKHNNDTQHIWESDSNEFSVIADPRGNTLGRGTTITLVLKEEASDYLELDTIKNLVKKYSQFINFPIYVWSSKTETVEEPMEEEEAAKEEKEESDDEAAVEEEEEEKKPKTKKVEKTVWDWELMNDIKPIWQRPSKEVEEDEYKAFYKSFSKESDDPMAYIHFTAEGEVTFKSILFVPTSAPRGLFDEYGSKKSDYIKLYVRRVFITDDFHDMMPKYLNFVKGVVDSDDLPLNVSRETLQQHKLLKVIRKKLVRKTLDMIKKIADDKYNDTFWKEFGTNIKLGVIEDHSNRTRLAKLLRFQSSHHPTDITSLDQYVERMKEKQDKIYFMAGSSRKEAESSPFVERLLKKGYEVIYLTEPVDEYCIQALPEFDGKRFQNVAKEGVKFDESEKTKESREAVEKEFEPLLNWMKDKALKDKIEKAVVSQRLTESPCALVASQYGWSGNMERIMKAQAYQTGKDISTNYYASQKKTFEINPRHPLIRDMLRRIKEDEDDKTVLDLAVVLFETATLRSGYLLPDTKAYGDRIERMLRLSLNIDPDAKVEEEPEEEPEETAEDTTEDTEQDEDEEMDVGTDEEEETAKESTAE

B1: anti-GRP94 human IgG antibody B5 (antibody, V domains shown)
VH: EVQLLESGGGLVQPGGSLRLSCAASGFTFSNYYMSWVRQAPGKGLEWVSGIYPNSGSTYYADSVKGRFTISRDNSKNTLYLQMNSLRAEDTAVYYCARDPLHPARFPFDYWGQGTLVTVSS
VL: QSVLTQPPSASGTPGQRVTISCTGSSSNIGNNAVSWYQQLPGTAPKLLIYADSHRPSGVPDRFSGSKSGTSASLAISGLRSEDEADYYCGAWDASLNAYVFGGGTKLTVL
notes: Tested as whole human IgG made from the selected scFv's VH and VL genes in pcDNA3.1 / Expi293 cells; also called GRP94 IgG B5
In the case of B1, the Kd in the assay with recombinant human GRP94 [1] was 467 pM.

B2: anti-GRP94 human IgG antibody E5 (antibody, V domains shown)
VH: EVQLLESGGGLVQPGGSLRLSCAASGFTFSNYAMSWVRQAPGKGLEWVSGISSSSGSTYYADSVKGRFTTSRDNSKNTLYLQMNSLRAEDTAVYYCARDRHPFSPNWFDYWGQGTLVTVSS
VL: QSVLTQPPSASGTPGQRVTISCSGSPSNIGSNTVTWYQQLPGTAPKLLIYADSHRPSGVPDRFSGSKSGTSASLAISGLRSEDEADYYCASWDDSLNGYVFGGGTKLTVL
notes: Tested as whole human IgG; also called GRP94 IgG E5
On to B2, for which, in the assay with recombinant human GRP94 [2], the equilibrium dissociation constant (Kd) worked out at 99.7 pM.

B3: anti-GRP94 human IgG antibody 3G7 (antibody, V domains shown)
VH: EVQLLESGGGLVQPGGSLRLSCAASGFTFSNYSMSWVRQAPGKGLEWVSGIYYGSGNKYYADSVKGRFTISRDNSKNTLYLQMNSLRAEDTAVYYCAKNLASFDYWGQGTLVTVSS
VL: QSVLTQPPSASGTPGQRVTISCSGSSSNIGSNSVNWYQQLPGTAPKLLIYSNSHRPSGVPDRFSGSKSGTSASLAISGLRSEDEADYYCGTWDSSLSGYVFGGGTKLTVL
notes: Tested as whole human IgG; also called GRP94 IgG 3G7
B3: in the assay with recombinant human GRP94 [3], the Kd is 1210 pM.

B4: anti-GRP94 human IgG antibody 2H5 (antibody, V domains shown)
VH: EVQLLESGGGLVQPGGSLRLSCAASGFTFSGYAMSWVRQAPGKGLEWVSAISHGGSSKYYADSVKGRFTISRDNSKNTLYLQMNSLRAEDTAVYYCAKDLLSPLQSIGSYDDAMDVWGQGTLVTVSS
VL: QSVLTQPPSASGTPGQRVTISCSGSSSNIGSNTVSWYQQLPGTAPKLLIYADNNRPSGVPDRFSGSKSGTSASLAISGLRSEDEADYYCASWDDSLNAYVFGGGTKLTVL
notes: Tested as whole human IgG; also called GRP94 IgG 2H5
Turning to B4, the Kd in the assay with recombinant human GRP94 [4] turned out to be 142 pM.

For orientation: Kd means a measure of binding affinity in units of concentration.
